Measured values: US6602854B1, “Branched multimeric Apo A-I agonist compounds” (priority 1997, dated 2003)
Where two headings read alike, the source gives them in different places.

What was measured:
[1] = tested on: isolated human HDL; assay: Formation of pre-β like particles: displacement of human ApoA-I from isolated human HDL; type: binding; conditions: increasing peptide:HDL mass ratio
Experimental: Human HDL was isolated by KBr density ultra centrifugation at density d=1.21 g/ml to obtain top fraction followed by Superose 6 gel filtration chromatography to separate HDL from other lipoproteins. Isolated HDL was adjusted to a final concentration of 1.0 mg/ml with physiological saline based on protein content determined by Bradford protein assay. An aliquot of 300 μl was removed from the isolated HDL preparation and incubated with 100 μl ^14C-labeled peptide 4 (0.2-1.0 μg/μl) for two hours at 37° C. Five separate incubations were analyzed including a blank containing 100 μl physiological saline and four dilutions of ^14C-labeled peptide 4: (i) 0.20 μg/μl peptide:HDL ratio=1:15; (ii) 0.30 μg/μl peptide:HDL ratio=1:10; (iii) […] peptide:HDL ratio=1:5; and (iv) 1.00 μg/μl peptide:HDL ratio=1:3. Following the two hour incubation, a 200 μl aliquot of the sample (total volume=400 μl) was loaded onto a Superose 6 gel filtration column for lipoprotein separation and analysis, and 100 μl was used to determine total radioactivity loaded. The conditions for all FPLC chromatographies were as described in Section 9.4, infra.

[2] = tested on: HDL in human plasma; conditions: for Radioactivity in 300 μl: 50 μl value multiplied by 6
Experimental: Human plasma (2 ml) was incubated with 20, 40, 60, 80, and 100 μg of ^14C-labeled peptide peptide 4 for 2 hr. at 37° C. The lipoproteins were separated by adjusting the density to 1.21 g/ml and centrifugation in TLA 100.3 rotor at 100,000 rpm (300,000 g) for 36 hr. at 4° C. The top 900 μl (in 300 μl fractions) was taken for the analysis. 50 μl from each 300 μl fraction was counted for radioactivity and 200 μl from each fraction was analyzed by FPLC (Superose 6/Superose 12 combination column).

[3] = tested on: HepG2 hepatoma cells; assay: Cholesterol efflux; type: cell-based; conditions: peptide:DMPC complexes 1:2 (w:w), 1-25 μg/ml, 24 hours; compared with native human ApoA-I
Experimental: HepG2 hepatoma cells were plated into 6-well culture dishes and grown to confluence. Cells were labeled with ^3H-cholesterol by drying the cholesterol, then adding 1% bovine serum albumin (BSA) in phosphate buffered saline (PBS), sonicating the solution, and adding 0.2 ml labeling solution and 1.8 ml growth medium to the cells, so that each well contained 2 μCi of radioactivity. Cells were incubated for 24 h with the labeling medium.
Peptide (or protein):DMPC complexes were prepared at a 1:2 peptide (or protein):DMPC ratio (w:w). […] Peptide or protein concentration in the final solution was 1 mg/ml.
Labeling media was removed from the cells and the cells were washed with PBS prior to addition of complexes. 1.6 ml of growth medium was added to each well, followed by peptide (or protein): DMPC complex and sufficient PBS to bring the final volume to 2 ml per well. The final peptide or ApoA-I concentrations were 1, 2.5, 5, 7.5 and 25 μg/ml medium. After 24 hours of incubation at 37° C., the medium was removed, and the cells washed with 2 ml of 1% BSA/PBS, followed by 2 washes with 2 ml each of PBS. The amount of ^3H-cholesterol effluxed into the medium was determined by liquid scintillation counting.

Sequence: PVLDLFRELLNELLEALKQKLK [peptide 4]
- displacement of native ApoA-I from HDL (in words) [1]: a displacement of ApoA-I was observed which increased with increasing concentration of peptide
- Radioactivity in 50 μl ([2]; 20 μg peptide in 2 ml human plasma, Fraction No. 1): 1407 cpm
- Recovery ([2]; 20 μg peptide, Fraction No. 1): 71.6%
- Radioactivity in 300 μl ([2]; 20 μg peptide, Fraction No. 1): 8442 cpm
- Radioactivity in 50 μl ([2]; 20 μg peptide, Fraction No. 2): 405 cpm
- Recovery ([2]; 20 μg peptide, Fraction No. 2): 20.6%
- Radioactivity in 300 μl ([2]; 20 μg peptide, Fraction No. 2): 2430 cpm
- Radioactivity in 50 μl ([2]; 20 μg peptide, Fraction No. 3): 152 cpm
- Recovery ([2]; 20 μg peptide, Fraction No. 3): 7.7%
- Radioactivity in 300 μl ([2]; 20 μg peptide, Fraction No. 3): 912 cpm
- Radioactivity in 50 μl ([2]; 40 μg peptide, Fraction No. 1): 2538 cpm
- Recovery ([2]; 40 μg peptide, Fraction No. 1): 70.4%
- Radioactivity in 300 μl ([2]; 40 μg peptide, Fraction No. 1): 15228 cpm
- Radioactivity in 50 μl ([2]; 40 μg peptide, Fraction No. 2): 721 cpm
- Recovery ([2]; 40 μg peptide, Fraction No. 2): 20%
- Radioactivity in 300 μl ([2]; 40 μg peptide, Fraction No. 2): 4326 cpm
- Radioactivity in 50 μl ([2]; 40 μg peptide, Fraction No. 3): 347 cpm
- Recovery ([2]; 40 μg peptide, Fraction No. 3): 9.6%
- Radioactivity in 300 μl ([2]; 40 μg peptide, Fraction No. 3): 2082 cpm
- Radioactivity in 50 μl ([2]; 60 μg peptide, Fraction No. 1): 4492 cpm
- Recovery ([2]; 60 μg peptide, Fraction No. 1): 75.5%
- Radioactivity in 300 μl ([2]; 60 μg peptide, Fraction No. 1): 26952 cpm
- Radioactivity in 50 μl ([2]; 60 μg peptide, Fraction No. 2): 1107 cpm
- Recovery ([2]; 60 μg peptide, Fraction No. 2): 18.6%
- Radioactivity in 300 μl ([2]; 60 μg peptide, Fraction No. 2): 6642 cpm
- Radioactivity in 50 μl ([2]; 60 μg peptide, Fraction No. 3): 354 cpm
- Recovery ([2]; 60 μg peptide, Fraction No. 3): 5.9%
- Radioactivity in 300 μl ([2]; 60 μg peptide, Fraction No. 3): 2124 cpm
- Radioactivity in 50 μl ([2]; 80 μg peptide, Fraction No. 1): 4715 cpm
- Recovery ([2]; 80 μg peptide, Fraction No. 1): 60%
- Radioactivity in 300 μl ([2]; 80 μg peptide, Fraction No. 1): 28290 cpm
- Radioactivity in 50 μl ([2]; 80 μg peptide, Fraction No. 2): 2251 cpm
- Recovery ([2]; 80 μg peptide, Fraction No. 2): 28.6%
- Radioactivity in 300 μl ([2]; 80 μg peptide, Fraction No. 2): 13506 cpm
- Radioactivity in 50 μl ([2]; 80 μg peptide, Fraction No. 3): 851 cpm
- Recovery ([2]; 80 μg peptide, Fraction No. 3): 11.3%
- Radioactivity in 300 μl ([2]; 80 μg peptide, Fraction No. 3): 5346 cpm
- Radioactivity in 50 μl ([2]; 100 μg peptide, Fraction No. 1): 5424 cpm
- Recovery ([2]; 100 μg peptide, Fraction No. 1): 67.5%
- Radioactivity in 300 μl ([2]; 100 μg peptide, Fraction No. 1): 32544 cpm
- Radioactivity in 50 μl ([2]; 100 μg peptide, Fraction No. 2): 1708 cpm
- Recovery ([2]; 100 μg peptide, Fraction No. 2): 21.2%
- Radioactivity in 300 μl ([2]; 100 μg peptide, Fraction No. 2): 10248 cpm
- Radioactivity in 50 μl ([2]; 100 μg peptide, Fraction No. 3): 907 cpm
- Recovery ([2]; 100 μg peptide, Fraction No. 3): 11.3%
- Radioactivity in 300 μl ([2]; 100 μg peptide, Fraction No. 3): 5442 cpm
- cholesterol efflux (in words) [3]: more efficient at cholesterol efflux than ApoA-I
